# Experimental data as given in patent US6034062A, “Bone morphogenetic protein (BMP)-9 compositions and their uses” (Genetics Institute, Inc., priority 1997, dated 2000).
# B1: BMP-9: recombinant human bone morphogenetic protein-9, mature amino acids #1-#110 of SEQ ID NO:9, expressed in CHO cells (protein)
# chain: TRECSRSCPRTAPQRQVRAVTRRTRMAHVAAGSTLARRKRSAGAGSHCQKTSLRVNFEDIGWDSWIIAPKEYEAYECKGGCFFPLADDVTPTKHAIVQTLVHLKFPTKVG
# modifications: 125I-iodinated as tracer; unlabelled BMP-9 used as the displacing ligand
# Columns and labels:
# NCTC1469 = assay: 125I-BMP-9 binding to NCTC1469 liver cell line; settings: iodinated CHO-derived BMP-9
# Protocol: (§1) BMP-9 responsiveness in parenchymal liver cells is tested by screening four liver cell lines for their ability to bind iodinated, CHO-derived BMP-9. […] Specific binding of BMP-9 to HepG2 cells is carried out by incubating HepG2 cells grown to confluence in Dulbecco's Modified Eagle's Medium (DME) containing 10% heat-inactivated fetal calf serum (FCS) on gelatinized 6 well plates with 2 ng/ml ^125 I-BMP-9 and increasing concentrations of unlabelled BMP-9 in binding buffer (136.9 mM NaCl, 5.37 mM KCl, 1.26 mM CaCl2, 0.64 mM MgSO4, 0.34 mM Na2 HPO4, 0.44 mM KH2 PO4, 0.49 mM MgCl2, 25 mM HEPES and 0.5% BSA, pH 7.4) for 20 hours at 4° C. to achieve binding equilibrium. This incubation follows a one hour preincubation at 37° C. in binding buffer alone. For crosslinking experiments, the cells were incubated with 500 μM disuccinimidyl suberate for 20 minutes at […] following binding. Cell extracts were analyzed on SDS-PAGE. […] The curvilinear nature of the Scatchard plot indicates negative cooperativity among BMP-9 receptors or that HepG2 cells express at least two populations of BMP-9 receptors with different affinities. Crosslinking analysis on HepG2 cells with ^125 I-BMP-9 yields two binding proteins of apparent molecular weights of 54 and 80 kD. […]
# [1] = system: Articular cartilage explants from calf carpal joints; assay: Articular cartilage assay (proteoglycan synthesis, sulfate incorporation); assay type: cell-based
# Protocol: The effect of BMP-9 on articular cartilage proteoglycan and DNA synthesis is assayed to determine if BMP-9 is involved in the regulation of metabolism of differentiated articular cartilage.
# Articular cartilage explants from calf carpal joints are maintained in DMEM with 50 μg/ml ascorbate, 4 mM glutamine and antibiotics for 3 days. Cytokines (rhBMP-2, rhBMP-4, rhBMP-6 and rhBMP-9, IGF-1, bFGF (1-1000 ng/ml), and TGFβ (1-100 ng/ml)) are added to the medium and culture is continued for 3 more days. Medium is changed daily. Twenty-four hours prior to harvest, explants are pulsed with 50 μCi/ml ^35 SO4 or 25 μCi/ml ^3 H-thymidine. Explants are solubilized and separation of free isotope is performed by gel chromatography. Total DNA of each explant is measured by a spectrophotometric assay.
# NMuli = assay: 125I-BMP-9 binding to NMuli liver cell line; settings: iodinated CHO-derived BMP-9
# Protocol: as §1
# HepG2 cells = assay: HepG2 cell proliferation (3H-thymidine incorporation, cell counting); assay type: cell-based
# Protocol: As a first indication of BMP-9 effects on confluent, serum starved HepG2 cells, cell proliferation is examined as determined by ^3 H-thymidine incorporation and cell counting. HepG2 cells are plated at […] in 96 well plates and cultured for 48 hours in DME/0.1% FCS to synchronize the cell cycle are treated for 24 hours with or without BMP-9 in the presence of 0.1% FCS. In ^3 H-thymidine incorporation assays, ^3 H-thymidine was included during the last 4 hours of treatment and cellular DNA was collected with a 96 well plate cell harvester. Proliferation was assayed by quantifying ethanol-precipitable ^3 H-thymidine incorporation by liquid scintillation counting. For cell counting assays, cells were trypsinized and counted with a hemacytometer. Primary rat hepatocytes isolated from male Fischer 344 rats (Charles River, Wilmington, Mass.) by collagenase digestion as previously described [Michalopoulos et al., Cancer Res. 42:4673-4682 (1982)] are plated on collagen-coated plates at subconfluence (5,000-10,000 cells/cm^2) in serum-free media as described in Michalopoulos et al., Cancer Res. 42:4673-4682 (1982) and treated with or without rhBMP-9 for 36 hours. ^3 H-thymidine was included throughout the treatment period and incorporated ^3 H-thymidine was quantified as described by Anscher et al., New England J. Med. 328:1592-1598 (1993). BMP-9 stimulates ^3 H-thymidine incorporation in HepG2 cells approximately five fold.
# primary rat hepatocytes = assay: Primary rat hepatocyte 3H-thymidine incorporation; assay type: cell-based
# Protocol: As a first indication of BMP-9 effects on confluent, serum starved HepG2 cells, cell proliferation is examined as determined by ^3 H-thymidine incorporation and cell counting. HepG2 cells are plated at […] in 96 well plates and cultured for 48 hours in DME/0.1% FCS to synchronize the cell cycle are treated for 24 hours with or without BMP-9 in the presence of 0.1% FCS. In ^3 H-thymidine incorporation assays, ^3 H-thymidine was included during the last 4 hours of treatment and cellular DNA was collected with a 96 well plate cell harvester. Proliferation was assayed by quantifying ethanol-precipitable ^3 H-thymidine incorporation by liquid scintillation counting. For cell counting assays, cells were trypsinized and counted with a hemacytometer. […] BMP-9 stimulates ^3 H-thymidine incorporation in HepG2 cells approximately five fold.
# To determine if this proliferative effect of BMP-9 was unique to the HepG2 liver tumor cell line, primary rat hepatocytes were tested for effects of BMP-9 on ^3 H-thymidine incorporated as shown in FIG. 4.
molecule,measurement,setting,value
B1,specific binding of 125I-BMP-9,NCTC1469,highest degree of binding
same,proteoglycan synthesis,"[1]; 100 ng/ml, calf articular cartilage explants",significantly more active in stimulating proteoglycan synthesis
same,proteoglycan synthesis versus control,"[1]; dose of 10 ng/ml, p<0.05, calf articular cartilage explants",stimulates proteoglycan synthesis above control levels
same,specific binding of 125I-BMP-9,NMuli,to some extent
same,"ED50, stimulation of 3H-thymidine incorporation","HepG2 cells; HepG2 cells, estimated",0.01 µg/mL
same,cell counting,"HepG2 cells; HepG2 cells, treated 24 hours",stimulatory effect
same,stimulation of 3H-thymidine incorporation,"HepG2 cells; confluent, serum starved HepG2 cells, treated 24 hours, 0.1% FCS",approximately five
same,3H-thymidine incorporation,primary rat hepatocytes; confluent primary rat hepatocytes,confluent primary hepatocytes did not
same,3H-thymidine incorporation,"primary rat hepatocytes; subconfluent primary rat hepatocytes, 36 hours, serum-free","stimulated ^3 h-thymidine incorporation in primary hepatocytes, although not as markedly as EGF"
